Experimental data published in patent US20250262210A1 (TRUSTEES OF COLUMBIA UNIVERSITY IN THE CITY OF NEW YORK, published 2025).

Target: T1, FBX038 (human, UniProt Q6PIJ6 1-1188, limits assumed)
T1 construct: Printed with a zero; probably FBXO38
T1 sequence (looked up): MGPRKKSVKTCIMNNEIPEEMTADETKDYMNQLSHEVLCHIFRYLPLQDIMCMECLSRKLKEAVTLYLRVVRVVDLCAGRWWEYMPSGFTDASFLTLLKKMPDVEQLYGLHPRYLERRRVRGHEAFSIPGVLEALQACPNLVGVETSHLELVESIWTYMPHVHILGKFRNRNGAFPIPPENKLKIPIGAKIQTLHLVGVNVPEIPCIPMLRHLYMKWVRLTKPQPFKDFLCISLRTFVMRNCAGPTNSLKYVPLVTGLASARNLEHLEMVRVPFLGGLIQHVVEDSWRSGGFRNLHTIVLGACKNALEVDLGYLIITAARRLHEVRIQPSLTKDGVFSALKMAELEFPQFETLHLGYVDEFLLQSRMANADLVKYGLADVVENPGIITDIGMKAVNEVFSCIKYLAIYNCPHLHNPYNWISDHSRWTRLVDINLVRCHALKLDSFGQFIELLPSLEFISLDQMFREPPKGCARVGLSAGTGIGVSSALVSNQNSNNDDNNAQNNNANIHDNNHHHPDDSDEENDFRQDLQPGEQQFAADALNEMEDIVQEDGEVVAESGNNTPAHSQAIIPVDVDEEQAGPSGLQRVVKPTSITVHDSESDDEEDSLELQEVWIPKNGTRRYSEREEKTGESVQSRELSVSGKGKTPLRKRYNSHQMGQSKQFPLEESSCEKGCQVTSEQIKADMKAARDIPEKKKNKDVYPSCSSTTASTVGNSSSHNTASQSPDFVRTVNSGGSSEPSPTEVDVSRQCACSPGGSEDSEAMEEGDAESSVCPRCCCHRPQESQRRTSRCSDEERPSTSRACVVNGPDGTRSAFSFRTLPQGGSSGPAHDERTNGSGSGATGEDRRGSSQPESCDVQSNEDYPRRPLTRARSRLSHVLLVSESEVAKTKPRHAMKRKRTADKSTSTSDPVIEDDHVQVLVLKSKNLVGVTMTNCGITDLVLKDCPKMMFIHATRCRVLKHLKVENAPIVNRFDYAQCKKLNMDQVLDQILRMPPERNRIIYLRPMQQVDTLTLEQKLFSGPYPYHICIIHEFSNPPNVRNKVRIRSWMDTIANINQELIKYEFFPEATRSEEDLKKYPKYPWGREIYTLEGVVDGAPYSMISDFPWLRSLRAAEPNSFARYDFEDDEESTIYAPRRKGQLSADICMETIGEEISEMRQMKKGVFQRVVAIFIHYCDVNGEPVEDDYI
Assay: IP/MS, LZTR1 wild type-FLAG, U87
In short: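 Gel slices were reduced with 5 mM DTT, alkylated with 11 mM IAA and digested overnight at 37° C. with trypsin. Peptides were analysed on an Orbitrap Fusion Tribrid by LC-MS/MS.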

binding result: binds
B1: LZTR1-FLAG (other, human, UniProt Q8N653 1-840, looked up)
chain: MAGPGSTGGQIGAAALAGGARSKVAPSVDFDHSCSDSVEYLTLNFGPFETVHRWRRLPPCDEFVGARRSKHTVVAYKDAIYVFGGDNGKTMLNDLLRFDVKDCSWCRAFTTGTPPAPRYHHSAVVYGSSMFVFGGYTGDIYSNSNLKNKNDLFEYKFATGQWTEWKIEGRLPVARSAHGATVYSDKLWIFAGYDGNARLNDMWTIGLQDRELTCWEEVAQSGEIPPSCCNFPVAVCRDKMFVFSGQSGAKITNNLFQFEFKDKTWTRIPTEHLLRGSPPPPQRRYGHTMVAFDRHLYVFGGAADNTLPNELHCYDVDFQTWEVVQPSSDSEVGGAEVPERACASEEVPTLTYEERVGFKKSRDVFGLDFGTTSAKQPTQPASELPSGRLFHAAAVISDAMYIFGGTVDNNIRSGEMYRFQFSCYPKCTLHEDYGRLWESRQFCDVEFVLGEKEECVQGHVAIVTARSRWLRRKITQARERLAQKLEQEAAPVPREAPGVAAGGARPPLLHVAIREAEARPFEVLMQFLYTDKIKYPRKGHVEDVLLIMDVYKLALSFQLCRLEQLCRQYIEASVDLQNVLVVCESAARLQLSQLKEHCLNFVVKESHFNQVIMMKEFERLSSPLIVEIVRRKQQPPPRTPLDQPVDIGTSLIQDMKAYLEGAGAEFCDITLLLDGHPRPAHKAILAARSSYFEAMFRSFMPEDGQVNISIGEMVPSRQAFESMLRYIYYGEVNMPPEDSLYLFAAPYYYGFYNNRLQAYCKQNLEMNVTVQNVLQILEAADKTQALDMKRHCLHIIVHQFTKVSKLPTLRSLSQQLLLDIIDSLASHISDKQCAELGADI
notes: Expressed in HEK 293T, HeLa or U87 cells; used as cell lysate; also called LZTR1 wild type-FLAG; LZTR1 WT; not shown: FLAG tag at the C-terminus
